According to patent US20240174744A1 (SCIRHOM, published 2024):

Assays:
[1] = biological target: T1, miR2-FL-WT-FLAG (mouse iRhom2 full length wild type C-terminally tagged with the triple-FLAG epitope) (mouse, UniProt Q80WQ6 1-827); experiment: FACS, MEF-DKO-miR2-FL-WT-FLAG cells
T1 construct: also called expressed by MEF-DKO-miR2-FL-WT-FLAG cells
T1 sequence: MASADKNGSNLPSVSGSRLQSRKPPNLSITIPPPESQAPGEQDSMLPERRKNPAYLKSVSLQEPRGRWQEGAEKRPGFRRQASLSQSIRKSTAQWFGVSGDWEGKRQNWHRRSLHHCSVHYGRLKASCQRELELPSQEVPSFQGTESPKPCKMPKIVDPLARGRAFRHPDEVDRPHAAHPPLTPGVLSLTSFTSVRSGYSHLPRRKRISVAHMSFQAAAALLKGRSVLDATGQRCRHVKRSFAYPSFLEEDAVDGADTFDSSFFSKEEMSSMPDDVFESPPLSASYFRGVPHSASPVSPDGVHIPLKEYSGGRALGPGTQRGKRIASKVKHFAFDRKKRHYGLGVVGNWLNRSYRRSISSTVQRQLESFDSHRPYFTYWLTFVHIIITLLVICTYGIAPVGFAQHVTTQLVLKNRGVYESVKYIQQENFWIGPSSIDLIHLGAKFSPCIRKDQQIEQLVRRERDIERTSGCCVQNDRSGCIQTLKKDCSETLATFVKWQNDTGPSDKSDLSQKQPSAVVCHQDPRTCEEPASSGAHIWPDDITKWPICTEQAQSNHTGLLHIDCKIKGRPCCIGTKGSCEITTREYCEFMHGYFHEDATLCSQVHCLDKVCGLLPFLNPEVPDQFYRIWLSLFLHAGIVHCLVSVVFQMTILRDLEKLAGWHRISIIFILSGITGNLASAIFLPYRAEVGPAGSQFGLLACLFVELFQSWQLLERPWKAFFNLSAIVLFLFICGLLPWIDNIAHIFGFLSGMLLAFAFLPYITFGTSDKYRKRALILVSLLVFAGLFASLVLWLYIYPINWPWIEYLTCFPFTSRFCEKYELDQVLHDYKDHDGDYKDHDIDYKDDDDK
Description: In brief, immortalized MEF-DKO-EV control cells, MEF-DKO-hiR2-FL-WT-FLAG cells and MEF-DKO-miR2-FL-WT-FLAG cells were harvested with 10 mM EDTA in PBS, washed and resuspended in FACS buffer (PBS, 3% FBS, 0.05% sodium azide), and seeded in Nunc U-bottom 96-well plates (Thermo Fisher Scientific, USA) at approximately 3×10⁵ cells per well. To pellet cells and remove supernatants, the plates were centrifuged at 1,500 rpm and 4° C. for 3 minutes. For primary staining, cells were resuspended in 100 μl per well of either FACS buffer alone (controls), mouse monoclonal anti-FLAG IgG (Sigma-Aldrich, USA) at 3 μg/ml FACS buffer or the antibodies of the present disclosure also at 3 μg/ml FACS buffer and incubated on ice for 1 hour. Afterwards, plates were centrifuged at 1,500 rpm and 4° C. for 3 minutes and washed twice with 200 μl per well of FACS buffer. For secondary staining, cells were spun down and resuspended in 100 μl per well of PE-conjugated goat anti-mouse IgG F(ab′)2 detection fragment (Dianova, Germany) diluted 1:100 in FACS buffer. Protected from light, the cell suspensions were incubated on ice for 1 hour. Plates were then centrifuged at 1,500 rpm and 4° C. for 3 minutes and washed three times with 200 μl per well of FACS buffer. Finally, cells were resuspended in 150 μl per well of FACS buffer and analyzed using a BD Accuri™ C6 Plus flow cytometer (Becton Dickinson, Germany).

[2] = biological target: T2, human iRhom2 (inactive rhomboid protein 2, isoform 1), endogenously expressed on human cells (human, UniProt Q6PJF5 1-856); experiment: cell-based or functional assay
T2 sequence: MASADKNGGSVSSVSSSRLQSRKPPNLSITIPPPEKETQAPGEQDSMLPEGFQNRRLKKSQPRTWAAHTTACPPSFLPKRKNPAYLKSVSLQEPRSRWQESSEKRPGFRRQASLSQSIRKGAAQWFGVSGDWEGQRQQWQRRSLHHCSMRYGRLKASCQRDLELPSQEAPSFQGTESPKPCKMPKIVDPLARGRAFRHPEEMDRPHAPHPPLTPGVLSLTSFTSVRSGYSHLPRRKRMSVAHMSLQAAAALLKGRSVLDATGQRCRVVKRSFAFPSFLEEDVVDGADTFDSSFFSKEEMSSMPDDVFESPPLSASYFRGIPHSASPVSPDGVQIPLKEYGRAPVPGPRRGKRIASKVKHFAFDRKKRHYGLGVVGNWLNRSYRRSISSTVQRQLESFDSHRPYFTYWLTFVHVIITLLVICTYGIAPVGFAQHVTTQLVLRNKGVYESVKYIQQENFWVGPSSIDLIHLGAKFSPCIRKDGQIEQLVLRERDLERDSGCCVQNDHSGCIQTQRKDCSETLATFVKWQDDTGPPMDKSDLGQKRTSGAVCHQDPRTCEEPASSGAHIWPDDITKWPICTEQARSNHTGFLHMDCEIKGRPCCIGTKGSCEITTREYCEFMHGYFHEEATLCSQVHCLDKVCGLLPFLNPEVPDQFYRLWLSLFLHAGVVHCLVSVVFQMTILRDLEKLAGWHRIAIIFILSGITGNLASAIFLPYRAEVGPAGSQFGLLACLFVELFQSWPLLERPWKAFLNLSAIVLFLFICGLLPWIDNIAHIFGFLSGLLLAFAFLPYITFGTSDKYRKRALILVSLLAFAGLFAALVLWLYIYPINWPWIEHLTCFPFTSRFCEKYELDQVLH

B1: antibody 42 (antibody, V domains shown)
VH: QVTLKESGPGILQPSQTLSLTCSLSGFSLSTFGRGVGWIRQPSGKGLEWLAHIWWDDEKYYNPALKSRLTISKDTSKNQVFLRIANVDTADTATYYCARIQNYGSNYWYFDVWGTGTTVTVSS
VL: LIVLTQSPAIMSASPGEKVTMTCGATSRISYMFWYQQKPGSSPRVLIYDTSNLASGVPVRFSGSGSGTSYSLTISRVEAEDVATYYCQQWNSYPLTFGAGTKLELK
notes: Mouse IgG, kappa light chain; also called clone #42; m42
[1]
  binding result: no binding (tested: 3 µg/ml)
[2]
  inhibition of LPS-induced release of TNFα from PBMCs of healthy donors, 1 µg/ml: 77 % inhibition
  inhibition of LPS-induced release of TNFα from THP-1 cells, 10 µg/ml, antibody purified from hybridoma: 76.7 % inhibition
  inhibition of LPS-induced release of TNFα from THP-1 cells, recombinant antibody: 75.9 % inhibition
  inhibition of LPS-induced release of TNFα from human macrophages of healthy donors: 93.2 % inhibition
  inhibition of PMA-induced release of HB-EGF from PBMCs of healthy donors, 1 µg/ml: 77.6 % inhibition
  inhibition of PMA-induced release of HB-EGF from THP-1 cells, 3 µg/ml: 76.6 % inhibition
  inhibition of PMA-induced release of HB-EGF from U-937 cells: 104 % inhibition
  inhibition of PMA-induced release of IL-6R from PBMCs of healthy donors, 1 µg/ml: 85 % inhibition
  inhibition of PMA-induced release of IL-6R from THP-1 cells, 1 µg/ml: 85.9 % inhibition
  inhibition of PMA-induced release of IL-6R from U-937 cells, 1 µg/ml: 80.8 % inhibition
  inhibition of PMA-induced release of IL-6R from U-937 cells, 3 µg/ml: 84.4 % inhibition
  inhibition of PMA-induced release of TGFα from PC3 cells, 1 µg/ml: 14.3 % inhibition
  inhibition of PMA-induced release of TNFα from U-937 cells, 1 µg/ml: 94.5 % inhibition
  inhibition of PMA-induced release of TNFα from U-937 cells, 3 µg/ml: 94.1 % inhibition

B2: antibody 54 (antibody, V domains shown)
VH: QVTLKESGPGILQPSQTLSLTCSFSGFSLSTFGLGVGWIRQPSGKGLECLAHIWWDDDKYSNPALKSRLTISKDTSKNQVFLKIANVDSADTATYFCARILNYGSNYWYFDVWGTGTTVTVSS
VL: QIVLTQSPALMSASPGEKVTMTCSASSSISYMYWYQQKPGSSPRLLIYDTSNLASGVPVRFSGSGSGTSFSLTVSRMEAEDAATYYCQQWNSYPLTFGAGTKLELK
notes: Mouse IgG, kappa light chain; also called clone #54
[1]
  binding result: no binding (tested: 3 µg/ml)
[2]
  inhibition of LPS-induced release of TNFα from THP-1 cells, recombinant antibody: 67.9 % inhibition

B3: antibody 56 (antibody, V domains shown)
VH: QVTLKESGPGILQPSQTLSLTCSFSGFSLSTFGMGVGWIRQPSGKGLEWLTNIWWDDDKYYNSVLKSRLTISKDTSKNQVFLKIANVDTADTATYYCARIAAYGSNYWYFDVWGTGTTVTVSS
VL: QIVLTQSPAIMSASPGEKVTMTCSASSSVSYMYWYQQKPGSSPRVLIYDTSNLSSGVPVRFSGSGSGTSYSLTISRMEAEDAATYYCQQWSSYPLTFGAGTKLELK
notes: Mouse IgG, kappa light chain; also called clone #56
[1]
  binding result: no binding (tested: 3 µg/ml)
[2]
  inhibition of LPS-induced release of TNFα from THP-1 cells, recombinant antibody: 65.8 % inhibition

B4: antibody 49 (antibody, V domains shown)
VH: QVTLKESGPGILQPSQTLSLTCSFSGFSLSTFGMGVGWIRQPSGKGLEWLAHIWWDDDKYYNPALQSRLTVSKDTAKNQVFLKIANVDTADTAIYYCARVGNYGSNYWYFAVWGTGTTVTVSS
VL: QIVLTQSPAIMSASPGEKVTMTCSASSSVSYMYWYQQKPGSSPRLLIYDTSNLASGVPVRFSGSGSGTSYSLTISRMEAEDAATYYCQQWNSYPLTFGAGTKLELK
notes: Mouse IgG, kappa light chain; also called clone #49
[1]
  binding result: no binding (tested: 3 µg/ml)
[2]
  inhibition of LPS-induced release of TNFα from THP-1 cells, recombinant antibody: 59.9 % inhibition
